The stoichiometry N is a count of units in the complex or per binding partner.

The values below come from paper PMC4167861, “Mycobacterium tuberculosis Rho Is an NTPase with Distinct Kinetic Properties and a Novel RNA-Binding Subdomain” (PLoS ONE, 2014).

This series deals with the molecule itself. In words: cross-linking; 2 ug MtbRho, 0.05% glutaraldehyde, 5 and 10 min at 37 C in T-buffer (KCl instead of K-glutamate), no RNA or ATP; 3.5-8% gradient SDS-PAGE; cross-linked RNAP as marker of ~400 kDa.

B1: Mycobacterium tuberculosis Rho (enzyme)
chain: MTDTDLITAGESTDGKPSDAAATDPPDLNADEPAGSLATMVLPELRALANRAGVKGTSGMRKNELIAAIEEIRRQANGAPAVDRSAQEHDKGDRPPSSEAPATQGEQTPTEQIDSQSQQVRPERRSATREAGPSGSGERAGTAADDTDNRQGGQQDAKTEERGTDAGGDQGGDQQASGGQQARGDEDGEARQGRRGRRFRDRRRRGERSGDGAEAELREDDVVQPVAGILDVLDNYAFVRTSGYLPGPHDVYVSMNMVRKNGMRRGDAVTGAVRVPKEGEQPNQRQKFNPLVRLDSINGGSVEDAKKRPEFGKLTPLYPNQRLRLETSTERLTTRVIDLIMPIGKGQRALIVSPPKAGKTTILQDIANAITRNNPECHLMVVLVDERPEEVTDMQRSVKGEVIASTFDRPPSDHTSVAELAIERAKRLVEQGKDVVVLLDSITRLGRAYNNASPASGRILSGGVDSTALYPPKRFLGAARNIEEGGSLTIIATAMVETGSTGDTVIFEEFKGTGNAELKLDRKIAERRVFPAVDVNPSGTRKDELLLSPDEFAIVHKLRRVLSGLDSHQAIDLLMSQLRKTKNNYEFLVQVSKTTPGSMDSD
notes: also called MtbRho; recombinant MtbRho
Regarding B1, the “stoichiometry N” value was determined as 6.
